Experimental data: patent US20170183413A1 (CELLECTIS, published 2017)

T1: CD123-Fc protein (fusion of the extracellular domain of the human CD123 protein with a murine IgG1 Fc … (human; mouse, UniProt P26951 19-305)
T1 construct: extracellular domain; also called fusion protein; not shown: murine IgG1 Fc fragment
T1 sequence (looked up): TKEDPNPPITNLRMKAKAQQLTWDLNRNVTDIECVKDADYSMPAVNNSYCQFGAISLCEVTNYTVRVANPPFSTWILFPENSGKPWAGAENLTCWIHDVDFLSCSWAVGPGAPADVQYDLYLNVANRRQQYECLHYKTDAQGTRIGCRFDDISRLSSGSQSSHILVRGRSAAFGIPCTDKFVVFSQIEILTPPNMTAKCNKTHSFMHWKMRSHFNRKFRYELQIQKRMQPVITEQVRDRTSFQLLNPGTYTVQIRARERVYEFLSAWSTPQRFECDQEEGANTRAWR

B1: Klon43-v3 CAR (Klo43-3, anti-CD123 chimeric antigen receptor, structure V-3: Klon43 scFv, CD8alpha hinge, CD8alpha transmembrane domain, 41BB intracellular … (other)
chain: EVKLVESGGGLVQPGGSLSLSCAASGFTFTDYYMSWVRQPPGKALEWLALIRSKADGYTTEYSASVKGRFTLSRDDSQSILYLQMNALRPEDSATYYCARDAAYYSYYSPEGAMDYWGQGTSVTVSSGGGGSGGGGSGGGGSMADYKDIVMTQSHKFMSTSVGDRVNITCKASQNVDSAVAWYQQKPGQSPKALIYSASYRYSGVPDRFTGRGSGTDFTLTISSVQAEDLAVYYCQQYYSTPWTFGGGTKLEIKRTTTPAPRPPTPAPTIASQPLSLRPEACRPAAGGAVHTRGLDFACDIYIWAPLAGTCGVLLLSLVITLYCKRGRKKLLYIFKQPFMRPVQTTQEEDGCSCRFPEEEEGGCELRVKFSRSADAPAYQQGQNQLYNELNLGRREEYDVLDKRRGRDPEMGGKPRRKNPQEGLYNELQKDKMAEAYSEIGMKGERRRGKGHDGLYQGLSTATKDTYDALHMQALPPR
notes: Chimeric antigen receptor on the surface of human T cells (mRNA transfection or lentiviral transduction); 44; In the lentiviral vector the CAR is coupled to BFP through a 2A peptide; also called CAR Klon 43 V3; Klon43 CAR
B2: 32716-v3 CAR (32716-3, anti-CD123 chimeric antigen receptor, structure V-3: 32716 scFv, CD8alpha hinge, CD8alpha transmembrane domain, 41BB intracellular … (other)
chain: QIQLVQSGPELKKPGETVKISCKASGYIFTNYGMNWVKQAPGKSFKWMGWINTYTGESTYSADFKGRFAFSLETSASTAYLHINDLKNEDTATYFCARSGGYDPMDYWGQGTSVTVSSGGGGSGGGGSGGGGSDIVLTQSPASLAVSLGQRATISCRASESVDNYGNTFMHWYQQKPGQPPKLLIYRASNLESGIPARFSGSGSRTDFTLTINPVEADDVATYYCQQSNEDPPTFGAGTKLELKTTTPAPRPPTPAPTIASQPLSLRPEACRPAAGGAVHTRGLDFACDIYIWAPLAGTCGVLLLSLVITLYCKRGRKKLLYIFKQPFMRPVQTTQEEDGCSCRFPEEEEGGCELRVKFSRSADAPAYQQGQNQLYNELNLGRREEYDVLDKRRGRDPEMGGKPRRKNPQEGLYNELQKDKMAEAYSEIGMKGERRRGKGHDGLYQGLSTATKDTYDALHMQALPPR
notes: Chimeric antigen receptor on the surface of human T cells; 38; In the lentiviral vector the CAR is coupled to BFP through a 2A peptide; also called CAR 32716V3

Target: T1, CD123-Fc protein (fusion of the …)
Experiment: flow cytometry on transduced T-cells, CD123-Fc fusion protein detected with PE-conjugated anti-mouse Fc
Method: Transduction of T-cells with recombinant lentiviral vectors expression the CAR was carried out three days after T-cell purification/activation. Lentiviral vectors were produced by Vectalys SA (Toulouse, France) by transfection of genomic and helper plasmids in HEK-293 cells. Transductions were carried out at a multiplicity of infection of 5, using 10⁶ cells per transduction. CAR detection at the surface of T-cells was done using a recombinant protein consisting on the fusion of the extracellular domain of the human CD123 protein together with a murine IgG1 Fc fragment (produced by LakePharma). Binding of this protein to the CAR molecule was detected with a PE-conjugated secondary antibody (Jackson Immunoresearch) targeting the mouse Fc portion of the protein, and analyzed by flow cytometry. […]
CAR detection was done using a fusion protein in which the extracellular domain of the human CD123 protein was fused to a mouse IgG1 derived Fc fragment. Binding of the CAR at the cell surface with the CD123 portion of the fusion protein was detected with anti-Fc PE-conjugated antibody and analyzed by flow cytometry. FIG. 9 represents the % of CAR+ or of Blue fluorescent protein (BFP+) cells (measured by FACS analysis) at Day 8 or 10 post transduction for two different donors.

| Binder | binding result |
| --- | --- |
| B1 | binds |
| B2 | binds |
